What was measured:
[1] = molecular target: T1, rat B7-H3 on CHO-S cells (CHO-S-rat B7-H3) (rat, UniProt Q7TPB4 29-316); assay: flow cytometry on CHO-S-rat B7-H3 cells
T1 construct: whole, on cells; also called rat B7-H3-overexpressed cells
T1 sequence (looked up): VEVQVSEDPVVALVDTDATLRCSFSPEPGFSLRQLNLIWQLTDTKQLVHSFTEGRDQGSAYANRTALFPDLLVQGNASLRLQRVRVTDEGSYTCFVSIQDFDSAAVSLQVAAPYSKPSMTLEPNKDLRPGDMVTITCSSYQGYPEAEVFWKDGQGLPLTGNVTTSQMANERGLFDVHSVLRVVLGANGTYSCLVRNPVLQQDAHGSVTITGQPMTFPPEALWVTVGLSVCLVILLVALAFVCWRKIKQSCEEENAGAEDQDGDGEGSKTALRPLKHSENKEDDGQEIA

[2] = molecular target: T2, human B7-H3 on human tumor cells (MCF-7, HT29, NCI-N87, HCC1806, HCC827) (human, UniProt Q5ZPR3 29-534); assay: flow cytometry on HT29 cells
T2 construct: whole, on cells
T2 sequence (looked up): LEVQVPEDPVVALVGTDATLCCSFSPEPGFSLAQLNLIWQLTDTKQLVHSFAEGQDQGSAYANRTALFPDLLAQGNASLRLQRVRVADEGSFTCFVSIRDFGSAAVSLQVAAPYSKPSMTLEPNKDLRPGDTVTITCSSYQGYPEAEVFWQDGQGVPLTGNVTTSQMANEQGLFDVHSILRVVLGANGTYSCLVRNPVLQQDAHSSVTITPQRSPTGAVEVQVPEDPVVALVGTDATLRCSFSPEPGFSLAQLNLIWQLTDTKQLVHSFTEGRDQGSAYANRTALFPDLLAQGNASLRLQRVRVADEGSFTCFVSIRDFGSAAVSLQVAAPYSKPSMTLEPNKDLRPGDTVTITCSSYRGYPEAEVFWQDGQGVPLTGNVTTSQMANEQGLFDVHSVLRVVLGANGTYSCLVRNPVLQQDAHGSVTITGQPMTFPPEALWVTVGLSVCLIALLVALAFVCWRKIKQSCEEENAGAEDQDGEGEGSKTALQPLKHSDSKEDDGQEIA

human B7-H4-hFc = molecular target: T3, human B7-H4-hFc (human, UniProt Q7Z7D3 25-259); assay: ELISA, antigen coated at 1 ug/ml, 2#8890-biotin detected with streptavidin-peroxidase
T3 construct: Bought protein; not shown: hFc
T3 sequence (looked up): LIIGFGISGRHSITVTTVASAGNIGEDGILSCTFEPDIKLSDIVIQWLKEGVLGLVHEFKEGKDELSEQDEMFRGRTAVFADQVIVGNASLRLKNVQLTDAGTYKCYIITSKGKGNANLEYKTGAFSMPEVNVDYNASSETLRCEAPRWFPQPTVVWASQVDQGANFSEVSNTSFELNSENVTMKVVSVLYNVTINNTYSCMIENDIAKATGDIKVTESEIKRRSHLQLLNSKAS

human B7-H1-mFc = molecular target: T4, human B7-H1-mFc (human, UniProt Q9NZQ7 19-238); assay: as above
T4 construct: Self-constructed; not shown: mFc
T4 sequence (Q9NZQ7 19-238): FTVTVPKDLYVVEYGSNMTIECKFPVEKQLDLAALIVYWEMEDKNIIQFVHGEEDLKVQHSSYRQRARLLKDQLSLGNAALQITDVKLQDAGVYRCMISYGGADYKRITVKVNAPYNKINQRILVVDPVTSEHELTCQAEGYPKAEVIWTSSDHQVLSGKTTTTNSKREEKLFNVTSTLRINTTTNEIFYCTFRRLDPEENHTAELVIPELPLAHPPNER

human B7-2-his = molecular target: T5, human B7-2-his (human, UniProt P42081 24-247, limits assumed); assay: ELISA, antigen coated at 1 ug/ml
T5 construct: Bought protein; not shown: his tag
T5 sequence (looked up): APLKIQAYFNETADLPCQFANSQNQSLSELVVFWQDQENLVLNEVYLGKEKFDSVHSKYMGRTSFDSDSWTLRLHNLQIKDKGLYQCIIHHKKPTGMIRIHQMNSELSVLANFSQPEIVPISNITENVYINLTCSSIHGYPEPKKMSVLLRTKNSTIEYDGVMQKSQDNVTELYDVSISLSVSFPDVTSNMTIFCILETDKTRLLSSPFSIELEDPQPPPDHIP

human B7-1-his = molecular target: T6, human B7-1-his (human, UniProt P33681 35-242); assay: ELISA, antigen coated at 1 ug/ml
T6 construct: Bought protein; not shown: his tag
T6 sequence (looked up): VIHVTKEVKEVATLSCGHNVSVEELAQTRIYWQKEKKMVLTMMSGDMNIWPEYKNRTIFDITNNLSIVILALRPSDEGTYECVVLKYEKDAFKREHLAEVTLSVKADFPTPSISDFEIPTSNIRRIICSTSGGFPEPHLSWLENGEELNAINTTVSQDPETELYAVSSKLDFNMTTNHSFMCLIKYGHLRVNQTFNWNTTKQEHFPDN

human B7-H2-his = molecular target: T7, human B7-H2-his (human, UniProt O75144 19-256, limits assumed); assay: ELISA, antigen coated at 1 ug/ml
T7 construct: Bought protein; not shown: his tag
T7 sequence (looked up): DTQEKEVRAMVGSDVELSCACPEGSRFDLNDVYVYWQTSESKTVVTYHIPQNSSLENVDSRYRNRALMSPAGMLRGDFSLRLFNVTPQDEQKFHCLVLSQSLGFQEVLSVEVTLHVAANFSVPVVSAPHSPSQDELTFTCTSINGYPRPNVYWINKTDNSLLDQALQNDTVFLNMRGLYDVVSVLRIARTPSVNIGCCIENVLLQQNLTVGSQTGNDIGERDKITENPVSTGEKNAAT

[3] = molecular target: T8, human B7-H3-2Ig on CHO-S cells (CHO-S-human B7-H3-2Ig) (human, UniProt Q5ZPR3 29-316); assay: flow cytometry on CHO-S-human B7-H3-2Ig cells
T8 construct: also called CHO-S-B7-H3-2Ig
T8 sequence: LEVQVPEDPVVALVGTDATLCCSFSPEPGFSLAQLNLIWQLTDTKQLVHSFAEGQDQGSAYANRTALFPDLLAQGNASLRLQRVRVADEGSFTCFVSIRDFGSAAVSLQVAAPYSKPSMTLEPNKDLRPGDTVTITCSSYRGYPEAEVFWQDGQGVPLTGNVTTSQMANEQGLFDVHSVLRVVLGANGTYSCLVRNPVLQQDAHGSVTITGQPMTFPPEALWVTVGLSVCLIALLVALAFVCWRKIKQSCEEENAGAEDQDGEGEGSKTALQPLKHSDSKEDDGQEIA

[4] = molecular target: T9, human B7-H3-4Ig on CHO-S cells (CHO-S-human B7-H3-4Ig) (human, UniProt Q5ZPR3 29-534); assay: flow cytometry on CHO-S-human B7-H3-4Ig cells
T9 construct: whole, on cells; also called CHO-S-B7-H3-4Ig
T9 sequence (looked up): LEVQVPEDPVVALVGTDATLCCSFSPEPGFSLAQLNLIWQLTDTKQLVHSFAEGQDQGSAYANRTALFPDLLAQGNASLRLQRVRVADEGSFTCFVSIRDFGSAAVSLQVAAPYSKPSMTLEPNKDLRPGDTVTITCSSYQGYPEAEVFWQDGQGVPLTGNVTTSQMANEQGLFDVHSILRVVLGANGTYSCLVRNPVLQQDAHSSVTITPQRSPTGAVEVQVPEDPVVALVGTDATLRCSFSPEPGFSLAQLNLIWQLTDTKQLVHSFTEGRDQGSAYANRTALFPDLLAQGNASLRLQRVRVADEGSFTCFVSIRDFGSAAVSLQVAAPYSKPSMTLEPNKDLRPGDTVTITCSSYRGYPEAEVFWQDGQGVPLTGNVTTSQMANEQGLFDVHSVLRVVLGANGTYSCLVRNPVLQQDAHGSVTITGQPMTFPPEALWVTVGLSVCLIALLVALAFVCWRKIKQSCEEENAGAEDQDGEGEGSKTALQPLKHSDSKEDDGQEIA

B1: anti-human-B7-H3 human antibody 2#8890 (antibody, human IgG1, kappa, V domains shown)
VH: QVQLQESGPGLVQPSGTLSLTCAVSGGSDSSTNWWTWVRQSPGQGLEWIGEISPIGFTSYSPSLRSRVTISVDKSKTQFSLKLSSVTAADTAVYYCARDRLYFAFWGQGTLVTVSS
VL: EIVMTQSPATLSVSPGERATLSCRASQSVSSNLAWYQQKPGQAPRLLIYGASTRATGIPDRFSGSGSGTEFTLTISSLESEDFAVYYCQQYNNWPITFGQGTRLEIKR
**Q.** Does B1 bind [1]?
**A.** no binding (tested: 10 ug/ml highest concentration)

**Q.** What about the EC50 [2] of the same binder?
**A.** 0.00634 µg/mL

**Q.** Does B1 bind (human B7-H4-hFc)?
**A.** no binding (tested: 10 ug/ml highest concentration)

**Q.** Does B1 bind (human B7-H1-mFc)?
**A.** no binding (tested: 10 ug/ml highest concentration)

**Q.** Does B1 bind (human B7-2-his)?
**A.** no binding (tested: 10 ug/ml highest concentration)

**Q.** Does B1 bind (human B7-1-his)?
**A.** no binding (tested: 10 ug/ml highest concentration)

**Q.** Does B1 bind (human B7-H2-his)?
**A.** no binding (tested: 10 ug/ml highest concentration)

**Q.** And the EC50 [3]?
**A.** 0.0684 µg/mL

**Q.** What about the EC50 [4] of the same binder?
**A.** 0.115 µg/mL
